Measurements from patent US20030219813A1 (Takeda / Millennium, published 2003).

T1: SCUBE1.Myc (human SCUBE1 tagged with Myc at the C-terminus, endogenous signal peptide) (human, UniProt Q8IWY4 23-988)
T1 construct: Expressed by transient transfection in HEK-293 / 293T cells; also called Myc-tagged human SCUBE1
T1 chain: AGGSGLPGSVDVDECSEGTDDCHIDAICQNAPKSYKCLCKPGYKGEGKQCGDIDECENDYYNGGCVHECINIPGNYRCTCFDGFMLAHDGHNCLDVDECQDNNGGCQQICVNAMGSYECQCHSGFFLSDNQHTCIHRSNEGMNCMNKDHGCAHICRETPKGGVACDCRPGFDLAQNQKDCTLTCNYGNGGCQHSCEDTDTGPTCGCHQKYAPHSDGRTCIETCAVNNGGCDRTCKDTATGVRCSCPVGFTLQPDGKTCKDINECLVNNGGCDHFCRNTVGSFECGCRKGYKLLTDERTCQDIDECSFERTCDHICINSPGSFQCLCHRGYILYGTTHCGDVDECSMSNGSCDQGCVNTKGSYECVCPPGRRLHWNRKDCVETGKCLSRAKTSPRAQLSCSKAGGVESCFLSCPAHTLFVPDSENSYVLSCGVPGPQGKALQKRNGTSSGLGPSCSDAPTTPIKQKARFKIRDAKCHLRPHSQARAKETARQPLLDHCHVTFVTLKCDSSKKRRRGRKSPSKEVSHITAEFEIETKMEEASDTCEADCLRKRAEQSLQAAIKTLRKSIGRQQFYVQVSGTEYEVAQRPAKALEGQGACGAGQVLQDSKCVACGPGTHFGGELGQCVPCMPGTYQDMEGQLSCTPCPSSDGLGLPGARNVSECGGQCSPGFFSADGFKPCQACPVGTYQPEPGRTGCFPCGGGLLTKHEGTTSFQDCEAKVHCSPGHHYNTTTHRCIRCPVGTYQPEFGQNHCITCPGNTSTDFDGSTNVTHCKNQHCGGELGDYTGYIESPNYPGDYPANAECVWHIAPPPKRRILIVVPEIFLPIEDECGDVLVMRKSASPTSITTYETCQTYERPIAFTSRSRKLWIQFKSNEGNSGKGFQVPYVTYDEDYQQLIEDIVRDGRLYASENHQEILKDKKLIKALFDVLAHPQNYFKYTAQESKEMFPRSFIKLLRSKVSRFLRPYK

B1: human SCUBE2 (SEQ ID NO:4) (other)
chain: RAAGPQEDVDECAQGLDDCHADALCQNTPTSYKCSCKPGYQGEGRQCEDIDECGNELNGGCVHDCLNIPGNYRCTCFDGFMLAHDGHNCLDVDECLENNGGCQHTCVNVMGSYECCCKEGFFLSDNQHTCIHRSEEGLSCMNKDHGCSHICKEAPRGSVACECRPGFELAKNQRDCILTCNHGNGGCQHSCDDTADGPECSCHPQYKMHTDGRSCLEREDTVLEVTESNTTSVVDGDKRVKRRLLMETCAVNNGGCDRTCKDTSTGVHCSCPVGFTLQLDGKTCKDIDECQTRNGGCDHFCKNIVGSFDCGCKKGFKLLTDEKSCQDVDECSLDRTCDHSCINHPGTFACACNRGYTLYGFTHCGDVTTIRTSVTFKLNEGKCSLKNAELFPEGLRPALPEKHSSVKESFRYVNLTCSSGKQVPGAPGRPSTPKEMFITVEFELETNQKEVTASCDLSCIVKRTEKRLRKAIRTLRKAVHREQFHLQLSGMNLDVAKKPPRTSERQAESCGVGQGHAENQCVSCRAGTYYDGARERCILCPNGTFQNEEGQMTCEPCPRPGNSGALKTPEAWNMSECGGLCQPGEYSADGFAPCQLCALGTFQPEAGRTSCFPCGGGLATKHQGATSFQDCETRVQCSPGHFYNTTTHRCIRCPVGTYQPEFGKNNCVSCPGNTTTDFDGSTNITQCKNRRCGGELGDFTGYIESPNYPGNYPANTECTWTINPPPKRRILIVVPEIFLPIEDDCGDYLVMRKTSSSNSVTTYETCQTYERPIAFTSRSKKLWIQFKSNEGNSARGFQVPYVTYDEDYQELIEDIVRDGRLYASENHQEILKDKKLIKALFDVLAHPQNYFKYTAQESREMFPRSFIRLLRSKVSRFLRPYK
notes: protein of 919 amino acids; also called recombinantly expressed SCUBE2

Assays:
[1] = target: B1; assay: overexpression; method not given
[2] = target: the molecule itself; assay: overexpression; method not given
[3] = target: T1, SCUBE1.Myc (human SCUBE1 tagged with …); assay: co-immunoprecipitation of detergent lysates, anti-Myc IP, anti-Flag M2 blot (FIG. 8b)
Description: HEK-293 cells were transfected with expression plasmids encoding Flag-tagged full-length SCUBE1, SCUBE1-D1, SCUBE1-D2 and TLR2 (control) proteins, and, two days after transfection, cells were collected and homogenized. Samples of supernatant (S10) were centrifuged at 100,000×g for 30 min to give soluble fractions (S100) and pellets (P100 membrane fraction). Pellets were resuspended in original volumes of homogenization buffer with 0.1 M Na₂CO₃ (pH 12), sonicated briefly, and then incubated on ice for 30 min. Samples were centrifuged again at 100,000×g for 30 min. to give washed fractions S100′ and pellets P100′. Each fraction was subjected to SDS-PAGE and immunoblot analysis using anti-Flag M2 antibody. […] Upon disruption by sonication, however, they are released from the membrane and can be detected in the soluble membrane fraction. […] Flag-SCUBE1 and SCUBE1.Myc were singly or co-transfected in 293T cells. As a control, SCUBE1.Myc was expressed together with Flag-tagged IL-1β receptor (Flag.IL-1R1). Immunoprecipitation (IP) and Western blot (WB) were performed using antisera as indicated. The bands indicate the presence of protein complexes that can be precipitated by one antibody and detected by another. […] The spacer and CUB sequences are not required. […] In each case, a protein complex that could be precipitated with anti-Myc antibody was detected with anti-Flag M2 antibody.

binding result [1] | binding result [3] | Binder | binding result [2]
binds |  | human SCUBE1 (SEQ ID NO:2) (other, glycosylated (N-linked, tunicamycin-sensitive), protein of 988 amino acids; also called Signal peptide-CUB-EGF-like domain-containing protein 1; recombinantly expressed SCUBE1) AGGSGLPGSVDVDECSEGTDDCHIDAICQNAPKSYKCLCKPGYKGEGKQCGDIDECENDYYNGGCVHECINIPGNYRCTCFDGFMLAHDGHNCLDVDECQDNNGGCQQICVNAMGSYECQCHSGFFLSDNQHTCIHRSNEGMNCMNKDHGCAHICRETPKGGVACDCRPGFDLAQNQKDCTLTCNYGNGGCQHSCEDTDTGPTCGCHQKYAPHSDGRTCIETCAVNNGGCDRTCKDTATGVRCSCPVGFTLQPDGKTCKDINECLVNNGGCDHFCRNTVGSFECGCRKGYKLLTDERTCQDIDECSFERTCDHICINSPGSFQCLCHRGYILYGTTHCGDVDECSMSNGSCDQGCVNTKGSYECVCPPGRRLHWNRKDCVETGKCLSRAKTSPRAQLSCSKAGGVESCFLSCPAHTLFVPDSENSYVLSCGVPGPQGKALQKRNGTSSGLGPSCSDAPTTPIKQKARFKIRDAKCHLRPHSQARAKETARQPLLDHCHVTFVTLKCDSSKKRRRGRKSPSKEVSHITAEFEIETKMEEASDTCEADCLRKRAEQSLQAAIKTLRKSIGRQQFYVQVSGTEYEVAQRPAKALEGQGACGAGQVLQDSKCVACGPGTHFGGELGQCVPCMPGTYQDMEGQLSCTPCPSSDGLGLPGARNVSECGGQCSPGFFSADGFKPCQACPVGTYQPEPGRTGCFPCGGGLLTKHEGTTSFQDCEAKVHCSPGHHYNTTTHRCIRCPVGTYQPEFGQNHCITCPGNTSTDFDGSTNVTHCKNQHCGGELGDYTGYIESPNYPGDYPANAECVWHIAPPPKRRILIVVPEIFLPIEDECGDVLVMRKSASPTSITTYETCQTYERPIAFTSRSRKLWIQFKSNEGNSGKGFQVPYVTYDEDYQQLIEDIVRDGRLYASENHQEILKDKKLIKALFDVLAHPQNYFKYTAQESKEMFPRSFIKLLRSKVSRFLRPYK | binds
 | binds | Flag.SCUBE1-D2 (Flag-tagged deletion construct 2 of human SCUBE1, amino acids 26-411 of SEQ ID NO:2; spacer, 10th EGF-like domain and CUB domain deleted) (other, not shown: small tags and cut ends) SGLPGSVDVDECSEGTDDCHIDAICQNAPKSYKCLCKPGYKGEGKQCGDIDECENDYYNGGCVHECINIPGNYRCTCFDGFMLAHDGHNCLDVDECQDNNGGCQQICVNAMGSYECQCHSGFFLSDNQHTCIHRSNEGMNCMNKDHGCAHICRETPKGGVACDCRPGFDLAQNQKDCTLTCNYGNGGCQHSCEDTDTGPTCGCHQKYAPHSDGRTCIETCAVNNGGCDRTCKDTATGVRCSCPVGFTLQPDGKTCKDINECLVNNGGCDHFCRNTVGSFECGCRKGYKLLTDERTCQDIDECSFERTCDHICINSPGSFQCLCHRGYILYGTTHCGDVDECSMSNGSCDQGCVNTKGSYECVCPPGRRLHWNRKDCVETGKCLSRA | 
 |  | B1 | binds
